# Reference: patent US20100115665A1 (published 2010)
# Biological target: T1, GroEL homologue from secondary endosymbiotic bacteria of the whitefly Bemisia tabaci (endosymbiotic bacteria of Bemisia tabaci, UniProt C4K477 1-552)
# T1 construct: Chaperonin expressed in planta and assayed in plant sap; also called whitefly GroEL; B. tabaci GroEL
# Assay: capture of sap of infected GroEL-transgenic N. benthamiana (7 dpi) in anti-GroEL coated tubes; RT-PCR and Western blot with virus-specific antibodies
# Method: Transgenic and non-transgenic N. benthamiana plants were mechanically inoculated with GVA and with TMV. Infection was assessed by RT-PCR and by Western blot analyses at 5-7 dpi (FIGS. 12A and 13A). The possible binding of GVA and TMV particles to GroEL in transgenic N. benthamiana plants was assessed as described above. Sap of infected transgenic plants at 7 dpi was incubated in PCR tubes coated with anti-GroEL antibody. Binding of GroEL-virus complexes to the coated tubes was assayed by RT-PCR and with virus-specific antibodies.
binder,measurement,value
"Grapevine virus A (GVA) (other, The partner in the assay is the whole filamentous virus particle in plant sap) MAHYAKRVEIRAIIEELVLAKAQPTDDASESGYDRNMYLNTLFGYIALVGTSKKAIHYGEVDIVGPKASKKTGIDPRGKMVVSELVGRMRTLSVAVSEGPVKGATLRQMCEPFAQNAYDFLVVMAEMGTYSQLATKMTRSGFKEPQVMFDFASGLDLKALTLQEATVIQAMHSRLFRTEGAKGVFNAQSSIGEQAVEI",binding result,no binding
